{
  "source": "ChEMBL document CHEMBL1143427",
  "about": "“Interactions of ceftobiprole with beta-lactamases from molecular classes A to D” (Antimicrob Agents Chemother, 2007)",
  "proteins": {"B1": {"name": "Beta-lactamase SHV-1 (Klebsiella pneumoniae), P0AD64 (protein)", "chain": "MRYIRLCIISLLATLPLAVHASPQPLEQIKLSESQLSGRVGMIEMDLASGRTLTAWRADERFPMMSTFKVVLCGAVLARVDAGDEQLERKIHYRQQDLVDYSPVSEKHLADGMTVGELCAAAITMSDNSAANLLLATVGGPAGLTAFLRQIGDNVTRLDRWETELNEALPGDARDTTTPASMAATLRKLLTSQRLSARSQRQLLQWMVDDRVAGPLIRSVLPAGWFIADKTGAGERGARGIVALLGPNNKAERIVVIYLRDTPASMAERNQQIAGIGAALIEHWQR"}, "B2": {"name": "Beta-lactamase TEM (Escherichia coli), P62593 (protein)", "chain": "MSIQHFRVALIPFFAAFCLPVFAHPETLVKVKDAEDQLGARVGYIELDLNSGKILESFRPEERFPMMSTFKVLLCGAVLSRVDAGQEQLGRRIHYSQNDLVEYSPVTEKHLTDGMTVRELCSAAITMSDNTAANLLLTTIGGPKELTAFLHNMGDHVTRLDRWEPELNEAIPNDERDTTMPAAMATTLRKLLTGELLTLASRQQLIDWMEADKVAGPLLRSALPAGWFIADKSGAGERGSRGIIAALGPDGKPSRIVVIYTTGSQATMDERNRQIAEIGASLIKHW"}},
  "key": {"[1]": {"substrate": "O=C(Cc1cccs1)N[C@@H]1C(=O)N2C(C(=O)[O-])=C(C[n+]3ccccc3)CS[C@H]12", "experiment": "(§1) Activity of Klebsiella pneumoniae SHV1 assessed as drug hydrolysis by spectrophotometry"}, "[2]": {"substrate": "CO/N=C(\\C(=O)N[C@@H]1C(=O)N2C(C(=O)[O-])=C(C[N+]3(C)CCCC3)CS[C@H]12)c1csc(N)n1", "experiment": "as §1"}, "[3]": {"substrate": "Nc1nc(/C(=N/O)C(=O)N[C@@H]2C(=O)N3C(C(=O)O)=C(/C=C4\\CCN([C@@H]5CCNC5)C4=O)CS[C@H]23)ns1", "experiment": "as §1"}, "[4]": {"substrate": "CC1(C)S[C@@H]2[C@H](NC(=O)Cc3ccccc3)C(=O)N2[C@H]1C(=O)O", "experiment": "as §1"}, "[5]": {"substrate": "O=C(Cc1cccs1)N[C@@H]1C(=O)N2C(C(=O)[O-])=C(C[n+]3ccccc3)CS[C@H]12", "experiment": "(§2) Ratio of Kcat to Km of Klebsiella pneumoniae SHV1 assessed as drug hydrolysis by spectrophotometry"}, "[6]": {"substrate": "CO/N=C(\\C(=O)N[C@@H]1C(=O)N2C(C(=O)[O-])=C(C[N+]3(C)CCCC3)CS[C@H]12)c1csc(N)n1", "experiment": "as §2"}, "[7]": {"substrate": "Nc1nc(/C(=N/O)C(=O)N[C@@H]2C(=O)N3C(C(=O)O)=C(/C=C4\\CCN([C@@H]5CCNC5)C4=O)CS[C@H]23)ns1", "experiment": "as §2"}, "[8]": {"substrate": "CC1(C)S[C@@H]2[C@H](NC(=O)Cc3ccccc3)C(=O)N2[C@H]1C(=O)O", "experiment": "as §2"}, "[9]": {"substrate": "CC(C)(O/N=C(\\C(=O)N[C@@H]1C(=O)N2C(C(=O)[O-])=C(C[n+]3ccccc3)CS[C@H]12)c1csc(N)n1)C(=O)O", "experiment": "(§3) Ratio of Kcat to Km of Escherichia coli TEM1 assessed as drug hydrolysis by spectrophotometry"}, "[10]": {"substrate": "Nc1nc(/C(=N/O)C(=O)N[C@@H]2C(=O)N3C(C(=O)O)=C(/C=C4\\CCN([C@@H]5CCNC5)C4=O)CS[C@H]23)ns1", "experiment": "as §3"}, "[11]": {"substrate": "CC1(C)S[C@@H]2[C@H](NC(=O)Cc3ccccc3)C(=O)N2[C@H]1C(=O)O", "experiment": "as §3"}, "[12]": {"substrate": "O=C(Cc1cccs1)N[C@@H]1C(=O)N2C(C(=O)[O-])=C(C[n+]3ccccc3)CS[C@H]12", "experiment": "(§4) Activity of Escherichia coli TEM1 assessed as drug hydrolysis by spectrophotometry"}, "[13]": {"substrate": "CC(C)(O/N=C(\\C(=O)N[C@@H]1C(=O)N2C(C(=O)[O-])=C(C[n+]3ccccc3)CS[C@H]12)c1csc(N)n1)C(=O)O", "experiment": "as §4"}, "[14]": {"substrate": "Nc1nc(/C(=N/O)C(=O)N[C@@H]2C(=O)N3C(C(=O)O)=C(/C=C4\\CCN([C@@H]5CCNC5)C4=O)CS[C@H]23)ns1", "experiment": "as §4"}, "[15]": {"substrate": "CC1(C)S[C@@H]2[C@H](NC(=O)Cc3ccccc3)C(=O)N2[C@H]1C(=O)O", "experiment": "as §4"}},
  "data": [
    {"protein": "B1", "values": [
      {"measurement": "Km", "setting": "[1]", "value": 160, "unit": "µM"},
      {"measurement": "kcat", "setting": "[1]", "value": 500, "unit": "s⁻¹"},
      {"measurement": "Km", "setting": "[2]", "value": 81, "unit": "µM"},
      {"measurement": "kcat", "setting": "[2]", "value": 2.1, "unit": "s⁻¹"},
      {"measurement": "Km", "setting": "[3]", "value": 130, "unit": "µM"},
      {"measurement": "kcat", "setting": "[3]", "value": 30, "unit": "s⁻¹"},
      {"measurement": "Km", "setting": "[4]", "value": 16, "unit": "µM"},
      {"measurement": "kcat", "setting": "[4]", "value": 1300, "unit": "s⁻¹"},
      {"measurement": "kcat/Km", "setting": "[5]", "value": "3.1e+06", "unit": "M⁻¹ s⁻¹"},
      {"measurement": "kcat/Km", "setting": "[6]", "value": 25000, "unit": "M⁻¹ s⁻¹"},
      {"measurement": "kcat/Km", "setting": "[7]", "value": 230000, "unit": "M⁻¹ s⁻¹"},
      {"measurement": "kcat/Km", "setting": "[8]", "value": "8.1e+07", "unit": "M⁻¹ s⁻¹"}
    ]},
    {"protein": "B2", "values": [
      {"measurement": "kcat/Km", "setting": "[9]", "value": 12, "unit": "M⁻¹ s⁻¹"},
      {"measurement": "kcat/Km", "setting": "[10]", "value": 29000, "unit": "M⁻¹ s⁻¹"},
      {"measurement": "kcat/Km", "setting": "[11]", "value": "1e+08", "unit": "M⁻¹ s⁻¹"},
      {"measurement": "Km", "setting": "[12]", "value": 560, "unit": "µM"},
      {"measurement": "kcat", "setting": "[12]", "value": 980, "unit": "s⁻¹"},
      {"measurement": "Km", "setting": "[13]", "value": 200, "unit": "µM"},
      {"measurement": "kcat", "setting": "[13]", "value": 0.0023, "unit": "s⁻¹"},
      {"measurement": "Km", "setting": "[14]", "value": 300, "unit": "µM"},
      {"measurement": "kcat", "setting": "[14]", "value": 8.8, "unit": "s⁻¹"},
      {"measurement": "Km", "setting": "[15]", "value": 12, "unit": "µM"},
      {"measurement": "kcat", "setting": "[15]", "value": 1200, "unit": "s⁻¹"}
    ]}
  ]
}
